From paper PMC8699718, “A structurally conserved site in AUP1 binds the E2 enzyme UBE2G2 and is essential for ER-associated degradation” (PLoS Biology, 2021)
Residue numbers refer to the chain shown, from its start. In names and notes the source's numbering stands. Ends that are not written are not given here.

B1: A397D: AUP1 point mutant; GST-AUP1 aa 292 to 410 in vitro, full-length AUP1-FLAG in cells (protein)
chain: SPDVQLATLAQRVKEVLPHVPLGVIQRDLAKTGCVDLTITNLLEGAVAFMPEDITKGTQSLPTASASKFPSSGPVTPQPTALTFAKSSWARQESLQERKQALYEYDRRRFTERRAQEAD
modifications: left off: GST, end not stated, kept
notes: AUP1 point mutant; GST-AUP1 aa 292 to 410 in vitro, full-length AUP1-FLAG in cells
B2: Y394D: AUP1 point mutant (GST-AUP1 aa 292 to 410) (protein)
chain: B1 chain with Y103D, D106A
modifications: left off: GST, end not stated, kept
B3: L386D/Y394D: AUP1 point mutant; GST-AUP1 aa 292 to 410 in vitro, full-length AUP1-FLAG in cells (protein)
chain: B1 chain with L95D, Y103D, D106A
modifications: left off: GST, end not stated, kept
notes: as for B1
B4: AUP1-FLAG: full-length epitope-tagged AUP1 (protein, UniProt Q9Y679 1-410, looked up)
chain: MELPSGPGPERLFDSHRLPGDCFLLLVLLLYAPVGFCLLVLRLFLGIHVFLVSCALPDSVLRRFVVRTMCAVLGLVARQEDSGLRDHSVRVLISNHVTPFDHNIVNLLTTCSTPLLNSPPSFVCWSRGFMEMNGRGELVESLKRFCASTRLPPTPLLLFPEEEATNGREGLLRFSSWPFSIQDVVQPLTLQVQRPLVSVTVSDASWVSELLWSLFVPFTVYQVRWLRPVHRQLGEANEEFALRVQQLVAKELGQTGTRLTPADKAEHMKRQRHPRLRPQSAQSSFPPSPGPSPDVQLATLAQRVKEVLPHVPLGVIQRDLAKTGCVDLTITNLLEGAVAFMPEDITKGTQSLPTASASKFPSSGPVTPQPTALTFAKSSWARQESLQERKQALYEYARRRFTERRAQEAD
modifications: full-length FLAG tag
B5: 5E: AUP1 point mutant; GST-AUP1 aa 292 to 410 in vitro, full-length AUP1-FLAG in cells (protein, UniProt Q9Y679 1-410, looked up, variant R382E Q383E K390E R398E R400E)
Lipid droplet-regulating VLDL …: B4 chain with R382E, Q383E, K390E, R398E, R400E
modifications: GST or FLAG tag
notes: as for B1
B6: 2A: AUP1 point mutant R382A/Q383A (GST-AUP1 aa 292 to 410) (protein, UniProt Q9Y679 1-410, looked up, variant R382A Q383A)
Lipid droplet-regulating VLDL …: B4 chain with R382A, Q383A
modifications: GST fusion aa 292-410
B7: 2E: AUP1 point mutant; GST-AUP1 aa 292 to 410 in vitro, full-length AUP1-FLAG in cells (protein, UniProt Q9Y679 1-410, looked up, variant R382E Q383E)
Lipid droplet-regulating VLDL …: B4 chain with R382E, Q383E
modifications: GST or FLAG tag
notes: as for B1
B8: G2BR^gp78 peptide (aa 574 to 600, with an added N-terminal Trp) (peptide)
peptide: WSADERQRMLVQRKDELLQQARKRFLNK
notes: N-terminal Trp residue added for peptide quantification; Natural stretch with one extra N-terminal Trp added for quantification; also called gp78 G2BR; source: synthetic peptide (GenScript)

Key:
UBE2G2 = biological target: T1, UBE2G2 (Homo sapiens, UniProt P60604); experiment: GST pulldown of in vitro translated 35S-UBE2G2; format: binding; conditions: GST-AUP1 aa 292 to 410 on glutathione beads, ~3 pmol GST fusion, ~0.2 pmol E2, overnight 4°C, pH 7.4
T1 construct: made in house
T1 sequence (P60604 1-165): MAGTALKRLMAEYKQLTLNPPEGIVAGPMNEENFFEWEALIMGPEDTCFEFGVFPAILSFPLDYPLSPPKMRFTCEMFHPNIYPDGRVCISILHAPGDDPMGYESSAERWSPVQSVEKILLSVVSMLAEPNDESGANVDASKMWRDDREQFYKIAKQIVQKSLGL
Experimental: Fig 3 The AUP1–UBE2G2 interaction is required for ERAD. (A) Equimolar amounts of GST-AUP1 (aa 292 to 410) or GST were immobilized on glutathione beads and binding to the indicated in vitro translated ^35S-labeled E2s was assessed. Left panel is 5% of input used for binding. E2s are referred to by their unique alpha-numeric designation (e.g., UBE2G1 and UBE2J1). (B) HT1080 or UBE2G2 KO cells were transfected with INSIG-1-MYC and degradation assessed by CHX chase. […] (D) Cells were transfected with NHK-MYC and HA-ubiquitin and ubiquitination of NHK assessed following proteasome inhibition and IP (right panel). Left panel is 10% of total cell lysate used for IP, indicating no discernable change in total ubiquitination. (E) Levels of endogenous HRD1 were monitored by CHX chase in the indicated cell types. (F) Ubiquitination of endogenous HRD1 was assessed following IP with HRD1 antiserum. Arrow in upper panel indicates migration of unmodified HRD1. Control immunoprecipitates using rabbit serum are shown for comparison. The data underlying this figure can be found in S1 Data. aa, amino acid; AUP1, ancient ubiquitous protein 1; CHX, cycloheximide; ERAD, endoplasmic reticulum–associated degradation; IP, immunoprecipitation; KO, knockout; WT, wild type.
(§1) Fig 6 Disruption of UBE2G2:G2BR^AUP1 interaction abrogates AUP1 function in cells. (A) GST or indicated GST-AUP1 fusions (aa 292 to 410, expression shown in Coomassie-stained gel) were immobilized on glutathione beads and binding to ^35S-UBE2G2 was assessed as in Fig 3A. Mutations include 2A (R382A/Q383A), 2E (R382E/Q383E), and 5E (R382E/Q383E/K390E/R398E/R400E). (B) AUP1 KO cells were transfected with NHK-HA and forms of full-length AUP1-FLAG with the indicated point mutations from (A) and NHK degradation assessed by CHX chase. (C) Binding assay performed as in (A) with AUP1 mutants predicted to disrupt hydrophobic interactions with UBE2G2. (D) Cellular assay performed as in (B) with AUP1-FLAG mutants that disrupt interactions with UBE2G2 in vitro in (C). The data underlying this figure can be found in S1 Data. aa, amino acid; AUP1, ancient ubiquitous protein 1; CHX, cycloheximide; G2BR, UBE2G2 Binding Region; KO, knockout; WT, wild type.
In vitro translated ^35S methionine-labeled E2s were generated using the E. coli T7-S30 Extract System (Promega) and excess ^35S methionine was removed by desalting twice with Zeba Spin Desalting Columns (Thermo Scientific). GST fusion proteins were quantified by Coomassie blue staining. Moreover, 0.1 μg of GST fusion protein (approximately 3 pmol) was prebound to GS 4B (GE Healthcare) and then incubated with approximately 10^5 cpm of ^35S methionine-labeled E2 (approximately 0.2 pmol) in 200 μl Binding Buffer (25 mM Tris-HCl, pH 7.4, 50 mM NaCl, 5 mM DTT, 0.5% IGEPAL CA-630) overnight at 4°C. Beads were extensively washed in Binding Buffer, resolved on Bis/Tris polyacrylamide gels under reducing conditions, dried and visualized on a Typhoon FLA 7000 (GE Healthcare). Binding was quantified using ImageQuant Software.

[1] = system: NHK (Null Hong Kong variant of alpha1-antitrypsin); experiment: CHX chase: NHK degradation in HT1080 AUP1 KO cells; format: cell-based, human; conditions: for restoration of NHK degradation: full-length or deleted AUP1-FLAG re-expressed in HT1080 AUP1 KO cells, CHX 50 μg/mL
Experimental: Fig 1 The G2BR of AUP1 is required for ERAD of NHK. (A) HT1080 or cells in which HRD1 was knocked out by CRISPR/Cas-9 (HRD1 KO) were transfected with plasmid encoding carboxyl-terminally HA-tagged NHK. Cells were treated with CHX for the indicated times to inhibit protein synthesis and NHK-HA degradation monitored by western blot. GFP and HSP60 serve as transfection efficiency and gel loading controls, respectively. (B) HT1080 or cells in which either AUP1 or gp78 was knocked out (AUP1 KO or gp78 KO) were transfected with NHK-HA and their degradation assessed. (C) AUP1 KO cells were transfected with NHK-HA and empty vector or plasmid encoding carboxyl-terminally FLAG-tagged AUP1 and NHK degradation assessed. (D) Indicated cells were transfected with plasmid encoding carboxyl-terminally MYC-tagged INSIG-1 and assessed for INSIG-1 degradation. (E) Schematic representation of AUP1 in the ER membrane and deletion mutants used in subsequent experiments. Amino acid residues are numbered spanning each domain. (F) AUP1 KO cells were transfected with NHK-HA and plasmids encoding the indicated FLAG-tagged AUP1 WT or deletion mutants and assessed for NHK degradation. (G) HEK293 (Parental) or HEK293 AUP1 KO cells were assessed for degradation of NHK-HA. (H) HEK293 AUP1 KO cells were assessed for NHK-HA degradation as in (F). Markers represent apparent molecular weight in kDa. The data underlying this figure can be found in S1 Data. aa, amino acid; AUP1, ancient ubiquitous protein 1; CHX, cycloheximide; ER, endoplasmic reticulum; ERAD, endoplasmic reticulum–associated degradation; G2BR, UBE2G2 Binding Region; KO, knockout; NHK, Null Hong Kong; WT, wild type.
as §1
Fig 8 Recruitment of UBE2G2 to the ER membrane and activation by G2BR^AUP1 is required for ERAD. (A) HT1080 or AUP1 KO cells were transfected with NHK-HA and either empty vector or MYC-UBE2G2 and NHK turnover assessed by CHX chase. (B) AUP1 KO cells were transfected with NHK-HA and GFP fusions of either a scrambled G2BR sequence (SCR) or G2BR^AUP1 and NHK turnover and levels of endogenous UBE2G2 assessed. Luciferase and β-actin served as transfection efficiency and gel loading controls, respectively. (C) AUP1 KO cells were transfected with NHK-HA, MYC-UBE2G2, and either GFP-SCR or GFP-G2BR^AUP1 and NHK turnover assessed. (D) Membrane fractionation was performed on HT1080 or AUP1 KO cells transfected with either empty vector or AUP1-FLAG and localization of UBE2G2 assessed by western blotting. Localization of β-actin (cytosol) and Calnexin (ER membrane) were used as controls for cytosolic (C) and membrane (M) fractions, respectively. (E) Membrane fractionation of AUP1 KO cells transfected with either MYC-UBE2G2 or TM-UBE2G2. (F) HT1080 cells were transfected with TM-UBE2G2 and its localization assessed by confocal microscopy. Images shown are from an optical section after deconvolution. HA-tagged UBE2J2, an ER-localized E2, serves as an ER marker. […]

purified UBE2G2 [2] = biological target: T2, purified UBE2G2 (UniProt P60604 1-165, ^15N-labeled for NMR); experiment: FP
T2 chain: T1 sequence (P60604 1-165)

purified UBE2G2 [3] = biological target: T2, purified UBE2G2; experiment: MST
purified UBE2G2 [4] = biological target: T3, purified UBE2G2 (UniProt P60604 1-165, ^15N-labeled for NMR); experiment: ITC; 30 μM G2BR peptide injected into 3 μM UBE2G2 in the cell, PBS pH 7.4, 25°C, one set of sites model; conditions: both partners purified
T3 construct: UBE2G2, purified recombinant protein used for ITC, FP, MST and NMR; also called apo-UBE2G2; ^15N-labeled UBE2G2
T3 sequence (looked up): T1 sequence (P60604 1-165)

Molecule | binding to UBE2G2 (UBE2G2) | restoration of NHK degradation [1] | further results
B1 | Binding was similarly lost | failed to restore NHK degradation | NHK degradation, doubled amount of plasmid ([1]; repeat transfection with doubled amount of mutant, reviewer response): unable to convince ourselves that there is any significant degradation
B2 | reduced binding |  | 
B3 | eliminated detectable binding to UBE2G2 | failed to restore NHK degradation | 
B4 |  | restored NHK degradation | 
B5 | loss of detectable UBE2G2 binding | failed to restore NHK degradation | 
B6 | unable to disrupt UBE2G2 binding |  | 
B7 | failed to disrupt UBE2G2 binding | restored degradation of NHK in the AUP1 KO cells, to a degree comparable to WT AUP1 | 
SSWARQESLQERKQALYEYARRRFTER (also: FITC label, position not given here) [FITC-labeled G2BR^AUP1 peptide] |  |  | Kd (purified UBE2G2 [2]): 7.1 nM; Kd (purified UBE2G2 [3]): 4.3 nM
B8 |  |  | Kd (purified UBE2G2 [4]): 2.7 nM
WSADERQRMLVQRKDELLQQARKRFLNK (also: FITC label, position not given here) [FITC-labeled G2BR^gp78 peptide] |  |  | Kd (purified UBE2G2 [2]): 15.1 nM; Kd (purified UBE2G2 [3]): 10 nM
